These results are taken from patent publication US20260242735A1 (UNIVERSIT T BASEL, published 2026).

One assay has as its target human CD33 C41A (human, UniProt P20138 18-364). As to the kind of experiment: alanine scan, flow cytometry. (In flow cytometry, cells or beads pass a laser one at a time.)
The target in the next assay is human CD33 P201A (human, UniProt P20138 18-364). In words: alanine scan, flow cytometry.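 Note: HEK293-T cells transiently expressing single-residue alanine mutants of CD33 (alanine swapped to serine), antibody binding read by fluorescence in duplicate, background-subtracted, expressed relative to wild-type CD33.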
A further assay concerns the target human CD33 Q204A (human, UniProt P20138 18-364). In words: alanine scan, flow cytometry.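 Note: HEK293-T cells transiently expressing single-residue alanine mutants of CD33 (alanine swapped to serine), antibody binding read by fluorescence in duplicate, background-subtracted, expressed relative to wild-type CD33.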
For a further assay, the target named is human CD33 D205A (human, UniProt P20138 18-364). In words: alanine scan, flow cytometry.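 Note: HEK293-T cells transiently expressing single-residue alanine mutants of CD33 (alanine swapped to serine), antibody binding read by fluorescence in duplicate, background-subtracted, expressed relative to wild-type CD33.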
A further assay concerns the target human CD33 T208A (human, UniProt P20138 18-364). As to the kind of experiment: alanine scan, flow cytometry.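 Note: HEK293-T cells transiently expressing single-residue alanine mutants of CD33 (alanine swapped to serine), antibody binding read by fluorescence in duplicate, background-subtracted, expressed relative to wild-type CD33.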
Another assay addresses human CD33 T211A (human, UniProt P20138 18-364). In words: alanine scan, flow cytometry.
The next assay has as its target human CD33 K215A (human, UniProt P20138 18-364). As to the kind of experiment: alanine scan, flow cytometry.
The next assay addresses human CD33 F216A (human, UniProt P20138 18-364). As to the kind of experiment: alanine scan, flow cytometry.
Another assay deals with human CD33 A217S (human, UniProt P20138 18-364). In words: alanine scan, flow cytometry.
The next assay concerns the target human CD33 T232A (human, UniProt P20138 18-364). In words: alanine scan, flow cytometry.
The target in a further assay is human CD33 V196A (human, UniProt P20138 18-364). As to the kind of experiment: alanine scan, flow cytometry.
The target of the next assay is human CD33 I242A (human, UniProt P20138 18-364). In words: alanine scan, flow cytometry.
Another assay concerns the target human CD33 P244A (human, UniProt P20138 18-364). In words: alanine scan, flow cytometry.
Another assay addresses human CD33 S248A (human, UniProt P20138 18-364). In words: alanine scan, flow cytometry.
The target in a further assay is human CD33 G249A (human, UniProt P20138 18-364). As to the kind of experiment: alanine scan, flow cytometry.
The target in another assay is human CD33 A255S (human, UniProt P20138 18-364). As to the kind of experiment: alanine scan, flow cytometry.
The target of the next assay is human CD33 V257A (human, UniProt P20138 18-364). As to the kind of experiment: alanine scan, flow cytometry.
Another assay has as its target human CD33 V258A (human, UniProt P20138 18-364). As to the kind of experiment: alanine scan, flow cytometry.
Another assay addresses human CD33 G266A (human, UniProt P20138 18-364). In words: alanine scan, flow cytometry.
The target of another assay is human CD33 L270A (human, UniProt P20138 18-364). As to the kind of experiment: alanine scan, flow cytometry.
For the next assay, the target named is human CD33 D18N (human, UniProt P20138 19-364). In words: flow cytometry, HEK293-T, IgG.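 Note: CD33 point mutants transiently expressed, antibody binding measured by fluorescence in duplicate, background subtracted and scaled to binding on wild-type CD33 as 100%.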
Another assay concerns the target human CD33 P19L (human, UniProt P20138 18-364). In words: flow cytometry, HEK293-T, IgG.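 Note: CD33 point mutants transiently expressed, antibody binding measured by fluorescence in duplicate, background subtracted and scaled to binding on wild-type CD33 as 100%.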
The next assay concerns the target human CD33 P19W (human, UniProt P20138 18-364). In words: flow cytometry, HEK293-T, IgG.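 Note: CD33 point mutants transiently expressed, antibody binding measured by fluorescence in duplicate, background subtracted and scaled to binding on wild-type CD33 as 100%.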
For a further assay, the target named is human CD33 N20S (human, UniProt P20138 18-364). In words: flow cytometry, HEK293-T, IgG.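 Note: CD33 point mutants transiently expressed, antibody binding measured by fluorescence in duplicate, background subtracted and scaled to binding on wild-type CD33 as 100%.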
The target of another assay is human CD33 N20P (human, UniProt P20138 18-364). In words: flow cytometry, HEK293-T, IgG.
The next assay addresses human CD33 N20Y (human, UniProt P20138 18-364). In words: flow cytometry, HEK293-T, IgG.
For a further assay, the target named is human CD33 N20D (human, UniProt P20138 18-364). In words: flow cytometry, HEK293-T, IgG.
For the next assay, the target named is human CD33 F21S (human, UniProt P20138 18-364). In words: flow cytometry, HEK293-T, IgG.
Another assay deals with human CD33 F21I (human, UniProt P20138 18-364). In words: flow cytometry, HEK293-T, IgG.
Another assay has as its target human CD33 W22S (human, UniProt P20138 18-364). As to the kind of experiment: flow cytometry, HEK293-T, IgG.
In the next assay the target is human CD33 L23M (human, UniProt P20138 18-364). In words: flow cytometry, HEK293-T, IgG.
For another assay, the target named is human CD33 Q24S (human, UniProt P20138 18-364). As to the kind of experiment: flow cytometry, HEK293-T, IgG.
Another assay concerns the target human CD33 Q24I (human, UniProt P20138 18-364). As to the kind of experiment: flow cytometry, HEK293-T, IgG.
The target of another assay is human CD33 Q24H (human, UniProt P20138 18-364). In words: flow cytometry, HEK293-T, IgG.
For a further assay, the target named is human CD33 V25S (human, UniProt P20138 18-364). In words: flow cytometry, HEK293-T, IgG.
The target of a further assay is human CD33 V25I (human, UniProt P20138 18-364). In words: flow cytometry, HEK293-T, IgG.
A further assay concerns the target human CD33 V25L (human, UniProt P20138 18-364). As to the kind of experiment: flow cytometry, HEK293-T, IgG.
In the next assay the target is human CD33 V25M (human, UniProt P20138 18-364). In words: flow cytometry, HEK293-T, IgG.

Sequence of human CD33 L23M (P20138 18-364 L23M limits assumed): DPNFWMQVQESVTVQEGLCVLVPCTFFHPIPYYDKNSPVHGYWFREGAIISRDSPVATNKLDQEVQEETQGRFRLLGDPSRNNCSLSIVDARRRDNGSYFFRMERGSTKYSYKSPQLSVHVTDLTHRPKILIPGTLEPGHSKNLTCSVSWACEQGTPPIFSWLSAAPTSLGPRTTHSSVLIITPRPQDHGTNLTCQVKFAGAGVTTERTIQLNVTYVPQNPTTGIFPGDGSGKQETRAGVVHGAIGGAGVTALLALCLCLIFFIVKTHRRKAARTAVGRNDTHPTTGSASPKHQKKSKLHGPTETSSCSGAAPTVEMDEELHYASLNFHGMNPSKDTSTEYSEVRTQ
Sequence of human CD33 N20S (P20138 18-364 N20S limits assumed): as the sequence (P20138 18-364 L23M limits assumed) above, with N3S, M6L counted along it
Sequence of human CD33 I242A (P20138 18-364 I242A limits assumed): as the sequence (P20138 18-364 L23M limits assumed) above, with M6L, I225A counted along it
Sequence of human CD33 Q24H (P20138 18-364 Q24H limits assumed): as the sequence (P20138 18-364 L23M limits assumed) above, with M6L, Q7H counted along it
Sequence of human CD33 P201A (P20138 18-364 P201A limits assumed): as the sequence (P20138 18-364 L23M limits assumed) above, with M6L, P184A counted along it
Sequence of human CD33 G249A (P20138 18-364 G249A limits assumed): as the sequence (P20138 18-364 L23M limits assumed) above, with M6L, G232A counted along it
Sequence of human CD33 A255S (P20138 18-364 A255S limits assumed): as the sequence (P20138 18-364 L23M limits assumed) above, with M6L, A238S counted along it
Sequence of human CD33 T232A (P20138 18-364 T232A limits assumed): as the sequence (P20138 18-364 L23M limits assumed) above, with M6L, T215A counted along it
Sequence of human CD33 L270A (P20138 18-364 L270A limits assumed): as the sequence (P20138 18-364 L23M limits assumed) above, with M6L, L253A counted along it
Sequence of human CD33 P19L (P20138 18-364 P19L limits assumed): as the sequence (P20138 18-364 L23M limits assumed) above, with P2L, M6L counted along it
Sequence of human CD33 N20P (P20138 18-364 N20P limits assumed): as the sequence (P20138 18-364 L23M limits assumed) above, with N3P, M6L counted along it
Sequence of human CD33 V257A (P20138 18-364 V257A limits assumed): as the sequence (P20138 18-364 L23M limits assumed) above, with M6L, V240A counted along it
Sequence of human CD33 K215A (P20138 18-364 K215A limits assumed): as the sequence (P20138 18-364 L23M limits assumed) above, with M6L, K198A counted along it
Sequence of human CD33 V258A (P20138 18-364 V258A limits assumed): as the sequence (P20138 18-364 L23M limits assumed) above, with M6L, V241A counted along it
Method for human CD33 A217S: (§1) An alanine scan on human CD33 was performed to the determine the residues on CD33 that are involved in binding to the antibodies investigated. […] Briefly, a mutation library of CD33 was created by high-throughput, site-directed mutagenesis. Each residue was individually mutated to alanine, with alanine codons mutated to serine. The mutant library was arrayed in 384-well microplates and transiently transfected into HEK293-T. Following transfection, cells were incubated with the indicated antibodies (IgG or Fab) at concentrations pre-determined using an independent immunofluorescence titration curve on wild type CD33. […] Binding of each antibody to each mutant clone was determined in duplicates. For each point, background fluorescence was subtracted from the raw data, which were then normalized to antibody reactivity with wild type CD33.
(§2) Critical residues for antibody binding (outlined in dark grey) were residues whose mutations led to a binding of the test Abs of less than 20%. Additional secondary residues (outlined in light grey) were identified that led to a binding of the test Abs of between 20 and 40% as compared to the wild type CD33.
Method for human CD33 A255S: as §1, §2
Method for human CD33 C41A: as §1, §2
Method for human CD33 D18N: as §1
(§3) Antibodies were screened for binding to the human CD33 variants in IgG format. […] For each mutation, background fluorescence was subtracted from the raw data, which were then normalized to antibody reactivity with wild-type CD33.
Method for human CD33 D205A: as §1, §2
Method for human CD33 F216A: as §1, §2
Method for human CD33 F21I: as §1, §3
Method for human CD33 F21S: as §1, §3
Method for human CD33 G249A: as §1, §2
Method for human CD33 G266A: as §1, §2
Method for human CD33 I242A: as §1, §2
Method for human CD33 K215A: as §1, §2
Method for human CD33 L23M: as §1, §3
Method for human CD33 L270A: as §1, §2
Method for human CD33 N20D: as §1, §3
Method for human CD33 N20P: as §1, §3
Method for human CD33 N20S: as §1, §3
Method for human CD33 N20Y: as §1, §3
Method for human CD33 P19L: as §1, §3
Method for human CD33 P19W: as §1, §3
Method for human CD33 P201A: as §1, §2
Method for human CD33 P244A: as §1, §2
Method for human CD33 Q204A: as §1, §2
Method for human CD33 Q24H: as §1, §3
Method for human CD33 Q24I: as §1, §3
Method for human CD33 Q24S: as §1, §3
Method for human CD33 S248A: as §1, §2
Method for human CD33 T208A: as §1, §2
Method for human CD33 T211A: as §1, §2
Method for human CD33 T232A: as §1, §2
Method for human CD33 V196A: as §1, §2
Method for human CD33 V257A: as §1, §2
Method for human CD33 V258A: as §1, §2
Method for human CD33 V25I: as §1, §3
Method for human CD33 V25L: as §1, §3
Method for human CD33 V25M: as §1, §3
Method for human CD33 V25S: as §1, §3
Method for human CD33 W22S: as §1, §3

B1: Refmab #3 (antibody, V domains shown)
VH: QVQLVQSGAEVKKPGSSVKVSCKASGYTFTDYNMHWVRQAPGQGLEWIGYIYPYNGGTGYNQKFKSKATITADESTNTAYMELSSLRSEDTAVYYCARGRPAMDYWGQGTLVTVSS
VL: DIQMTQSPSSLSASVGDRVTITCRASESVDNYGISFMNWFQQKPGKAPKLLIYAASNQGSGVPSRFSGSGSGTDFTLTISSLQPDDFATYYCQQSKEVPWTFGQGTKVEIK
notes: Full-length format is human IgG1 Fc silent (PG-LALA); The alanine scan used IgG or Fab
Consider B1, for which the “Mean % WT Binding” value with human CD33 C41A is 30.7 % WT.

B2: Refmab #6 (antibody, V domains shown)
VH: QVQLQQPGAEVVKPGASVKMSCKASGYTFTSYYIHWIKQTPGQGLEWVGVIYPGNDDISYNQKFQGKATLTADKSSTTAYMQLSSLTSEDSAVYYCAREVRLRYFDVWGQGTTVTVSS
VL: EIVLTQSPGSLAVSPGERVTMSCKSSQSVFFSSSQKNYLAWYQQIPGQSPRLLIYWASTRESGVPDRFTGSGSGTDFTLTISSVQPEDLAIYYCHQYLSSRTFGQGTKLEIK
notes: Full-length format is human IgG1 Fc silent (PG-LALA); also made as Fab; The alanine scan used IgG or Fab
For the molecule B2, the “Mean % WT Binding” value with human CD33 P201A came out at 115 % WT binding; with human CD33 Q204A, 108 % WT binding; in the assay with human CD33 D205A it was 3.1 % WT binding; with human CD33 T208A, 116 % WT binding; with human CD33 T211A, 92.2 % WT binding; with human CD33 K215A, 85.6 % WT binding. Further, the “Mean % WT Binding” value with human CD33 F216A was found to be 82.5 % WT binding; with human CD33 A217S it was 91 % WT binding; with human CD33 T232A, 79.6 % WT binding; in the assay with human CD33 V196A, 116 % WT binding; with human CD33 I242A it was 99 % WT binding; with human CD33 P244A it was 101 % WT binding. Besides, the “Mean % WT Binding” value in the assay with human CD33 S248A was determined as 94.4 % WT binding; with human CD33 G249A, 96.6 % WT binding; with human CD33 A255S, 96.8 % WT binding; with human CD33 V257A, 98.1 % WT binding; in the assay with human CD33 V258A it was 95.9 % WT binding; in the assay with human CD33 G266A it was 82.6 % WT binding. Moreover, the “Mean % WT Binding” value in the assay with human CD33 L270A came out at 105 % WT binding.

B3: Refmab #6 (antibody, human IgG1, V domains shown)
VH: B2 VH
VL: B2 VL
notes: tested in IgG format
As to B3, the “Mean % WT Binding” value was 32.2 % WT binding with human CD33 D18N; 103 % WT binding in the assay with human CD33 P19L; 75.5 % WT binding with human CD33 P19W; 101 % WT binding with human CD33 N20S; 97.2 % WT binding in the assay with human CD33 N20P; 28 % WT binding with human CD33 N20Y. The “Mean % WT Binding” value in the assay with human CD33 N20D turned out to be 103 % WT binding; in the assay with human CD33 F21S, 115 % WT binding; in the assay with human CD33 F21I it was 89.3 % WT binding; with human CD33 W22S, 6.7 % WT binding; with human CD33 L23M it was 100 % WT binding; with human CD33 Q24S, 80.7 % WT binding. In addition, the “Mean % WT Binding” value in the assay with human CD33 Q24I was found to be 89.9 % WT binding; with human CD33 Q24H it was 100 % WT binding; with human CD33 V25S it was 94.7 % WT binding; with human CD33 V25I it was 106 % WT binding; with human CD33 V25L, 104 % WT binding; with human CD33 V25M it was 68.6 % WT binding.

B4: Refmab #5 (antibody, V domains shown)
VH: QVQLVQSGAEVKKPGASVKVSCKASGYTFTNYDINWVRQAPGQGLEWIGWIYPGDGSTKYNEKFKAKATLTADTSTSTAYMELRSLRSDDTAVYYCASGYEDAMDYWGQGTTVTVSS
VL: DIQMTQSPSSLSASVGDRVTINCKASQDINSYLSWFQQKPGKAPKTLIYRANRLVDGVPSRFSGSGSGQDYTLTISSLQPEDFATYYCLQYDEFPLTFGGGTKVEIK
notes: as for B2
For the molecule B4, the “Mean % WT Binding” value with human CD33 P201A was found to be 111 % WT binding; with human CD33 Q204A it was 103 % WT binding; with human CD33 D205A it was 12.3 % WT binding; with human CD33 T208A it was 100 % WT binding; with human CD33 T211A it was 80.4 % WT binding; with human CD33 K215A, 103 % WT binding. The “Mean % WT Binding” value in the assay with human CD33 F216A came to 104 % WT binding; with human CD33 A217S, 121 % WT binding; with human CD33 T232A, 81.5 % WT binding; in the assay with human CD33 V196A, 84.5 % WT binding; with human CD33 I242A, 81.8 % WT binding; with human CD33 P244A, 107 % WT binding. The “Mean % WT Binding” value with human CD33 S248A came to 105 % WT binding; with human CD33 G249A it was 105 % WT binding; in the assay with human CD33 A255S, 88.3 % WT binding; with human CD33 V257A, 134 % WT binding; in the assay with human CD33 V258A, 95.9 % WT binding; in the assay with human CD33 G266A, 111 % WT binding. Besides, the “Mean % WT Binding” value in the assay with human CD33 L270A amounted to 91 % WT binding.

B5: Refmab #5 (antibody, human IgG1, V domains shown)
VH: B4 VH
VL: B4 VL
notes: tested in IgG format
For the molecule B5, the “Mean % WT Binding” value with human CD33 D18N turned out to be 58.7 % WT binding; with human CD33 P19L it was 100 % WT binding; in the assay with human CD33 P19W, 85.9 % WT binding; with human CD33 N20S it was 95.1 % WT binding; with human CD33 N20P, 96.8 % WT binding; with human CD33 N20Y it was 57.7 % WT binding. Further, the “Mean % WT Binding” value in the assay with human CD33 N20D came out at 97.1 % WT binding; with human CD33 F21S, 112 % WT binding; in the assay with human CD33 F21I, 95.7 % WT binding; with human CD33 W22S, 89.7 % WT binding; with human CD33 L23M, 90.7 % WT binding; with human CD33 Q24S it was 110 % WT binding. Further, the “Mean % WT Binding” value with human CD33 Q24I was 94.6 % WT binding; in the assay with human CD33 Q24H it was 104 % WT binding; with human CD33 V25S it was 107 % WT binding; with human CD33 V25I, 98.9 % WT binding; with human CD33 V25L, 94.9 % WT binding; in the assay with human CD33 V25M, 87.6 % WT binding.

B6: Refmab #4 (antibody, V domains shown)
VH: QVQLVQSGAEVKKPGESVKVSCKASGYTFTNYGMNWVKQAPGQGLEWMGWINTYTGEPTYADKFQGRVTMTTDTSTSTAYMEIRNLGGDDTAVYYCARWSWSDGYYVYFDYWGQGTSVTVSS
VL: DIVMTQSPDSLTVSLGERTTINCKSSQSVLDSSTNKNSLAWYQQKPGQPPKLLLSWASTRESGIPDRFSGSGSGTDFTLTIDSPQPEDSATYYCQQSAHFPITFGQGTRLEIK
notes: as for B1
Consider B6, for which, in the assay with human CD33 C41A, the “Mean % WT Binding” value came to 9.8 % WT.
